{
  "source": "paper PMC7997955",
  "about": "(2021)",
  "binders": {"B1": {"name": "pBora^18–120 (domain or fragment)", "chain": "not shown", "modifications": "phosphorylated (kinase and sites not stated for the fluorescence polarisation assay)"}},
  "biological_target": "Full-length human AURKA^T288V (human, UniProt O14965 1-403, T288V)",
  "sequence (O14965 other isoform, or with tags, fused parts or gaps T288V | T288V)": "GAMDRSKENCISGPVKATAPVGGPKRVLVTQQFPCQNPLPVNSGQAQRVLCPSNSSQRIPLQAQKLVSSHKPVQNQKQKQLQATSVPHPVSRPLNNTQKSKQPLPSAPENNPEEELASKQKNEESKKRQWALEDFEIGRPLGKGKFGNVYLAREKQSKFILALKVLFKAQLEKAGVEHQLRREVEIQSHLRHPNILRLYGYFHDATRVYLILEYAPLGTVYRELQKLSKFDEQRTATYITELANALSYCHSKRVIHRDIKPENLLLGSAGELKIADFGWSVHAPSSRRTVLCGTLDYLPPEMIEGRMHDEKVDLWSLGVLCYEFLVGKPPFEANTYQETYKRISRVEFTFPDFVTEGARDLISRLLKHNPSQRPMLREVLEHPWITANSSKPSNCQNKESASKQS",
  "experiment": "FP; competition with FITC-Tpx2 1-43",
  "data": [
    {"binder": "B1", "values": [
      {"measurement": "IC50", "value": 680, "unit": "nM"}
    ]}
  ]
}
